Test results as given in article PMC8041999.

Columns and labels:
Assay in all cases: multiplexed single-antigen bead assay (Luminex); 5 µg PE-conjugated KIR tetramers, 30 min at room temperature, with LABScreen HLA Class I Single Antigen beads; MFI normalised to the highest value of each experiment
[1] = molecular target: bead-bound HLA-C*14:02 presenting a broad repertoire of peptides (human)
[2] = molecular target: bead-bound HLA-C*17:01 presenting a broad repertoire of peptides (human)
[3] = molecular target: bead-bound HLA-C*15:02 presenting a broad repertoire of peptides (human)

Chain of soluble tetrameric form of KIR2DL2 (PE-conjugated KIR tetramer) (P43627 22-245): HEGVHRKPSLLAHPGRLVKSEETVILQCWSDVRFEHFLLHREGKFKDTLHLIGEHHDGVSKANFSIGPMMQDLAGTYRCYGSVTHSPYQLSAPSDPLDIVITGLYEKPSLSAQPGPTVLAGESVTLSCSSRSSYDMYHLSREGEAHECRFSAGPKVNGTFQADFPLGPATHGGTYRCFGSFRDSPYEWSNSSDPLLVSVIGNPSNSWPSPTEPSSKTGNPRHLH
Chain of soluble tetrameric form of KIR2DL3 (PE-conjugated KIR tetramer) (P43628 22-245): as the sequence (P43627 22-245) above, with R16P, E35Q, C148R, I200T, K216E counted along it

percent of the avidity of the top binding allomorph [1] [%] | percent of the top avidity [2] [%] | percent of the top avidity [3] [%] | percent of the maximum avidity [1] [%] | Substance
14.7 | 55 | 55 |  | soluble tetrameric form of KIR2DL2 (PE-conjugated KIR tetramer) (from UniProt P43627 22-245) (receptor)
 |  |  | 43 | soluble tetrameric form of KIR2DL3 (PE-conjugated KIR tetramer) (from UniProt P43628 22-245) (receptor)
